B1: seipin lumenal domain WT(47-235) with C-terminal 6xHis (domain or fragment, S. cerevisiae, UniProt Q06058 47-235, looked up)
chain: ADSSNVVPLNTFNILNGVQFGTKFFQSIKSIPVGTDLPQTIDNGLSQLIPMRDNMEYKLDLNLQLYCQSKTDHLNLDNLLIDVYRGPGPLLGAPGGSNSKDEKIFHTSRPIVCLALTDSMSPQEIEQLGPSRLDVYDEEWLNTIRIEDKISLESSYETISVFLKTEIAQRNLIIHPESGIKFRMNFEQG
notes: seipin Sei1, S. cerevisiae, lumenal domain lacking the TM segments, residues 47-235; also called WT lumenal domain; source: E. coli SHuffle T7 Express, purified (Ni-NTA), isolated in the absence of detergent; copies: 10
B2: yeast seipin Sei1 with C-terminal 3xFLAG-TEV-2xProteinA tag, purified from strain HAY60 (natural protein, S. cerevisiae, UniProt Q06058 1-285, looked up)
chain: MKINVSRPLQFLQWSSYIVVAFLIQLLIILPLSILIYHDFYLRLLPADSSNVVPLNTFNILNGVQFGTKFFQSIKSIPVGTDLPQTIDNGLSQLIPMRDNMEYKLDLNLQLYCQSKTDHLNLDNLLIDVYRGPGPLLGAPGGSNSKDEKIFHTSRPIVCLALTDSMSPQEIEQLGPSRLDVYDEEWLNTIRIEDKISLESSYETISVFLKTEIAQRNLIIHPESGIKFRMNFEQGLRNLMLRKRFLSYIIGISIFHCIICVLFFITGCTAFIFVRKGQEKSKKHS
notes: seipin Sei1 (Fld1), S. cerevisiae; tagged at the endogenous locus; The 2xProteinA part held the protein on IgG Sepharose and was cut off with TEV protease before SEC and cryo-EM; The deposited model holds residues 17-264 without 134-147; also called Fld1; source: S. cerevisiae strain HAY60, overproduced from the GAL1 promoter at the endogenous locus; purified (IgG Sepharose, TEV cleavage, …)

Tests used:
[1] = molecular target: the molecule itself; test: negative-stain EM; WT lumenal domain oligomers from the SEC, 2D class averages
[2] = molecular target: the molecule itself; test: cryo-EM structure; purified Sei1-Ldb16 complex reconstituted in amphipol PmalC8, about 3.5 mg/ml; negative stain and cryo-EM; C10 then C5 symmetry

Protein	stoichiometry N [1]	stoichiometry N [2]
B1	10	
B2		10
